How the values were obtained:
Flag-PRMT5 = target: T1, Flag-PRMT5 (human, UniProt O14744 1-637); test: pull-down; GST fusion proteins on glutathione-Sepharose 4B beads mixed with Flag-tagged proteins purified from HEK293T cells, 2 h at 4 °C; washed with 50 mM Tris-HCl pH 8.0, 0.2% NP-40, 150 mM NaCl, 2 mM EDTA; immunoblot; details: both partners purified
T1 construct: Protein arginine methyltransferase 5 (PRMT5), wild-type cDNA in lentiviral vector CD532A; 637 aa by the printed domain limits; also called Flag-tagged full-length (FL) PRMT5; PRMT5-FL; source: HEK293T, co-expressed, in lysate; purified from HEK293T cells (for the GST pull-down)
T1 sequence (O14744 whole entry, the tested form may be a part): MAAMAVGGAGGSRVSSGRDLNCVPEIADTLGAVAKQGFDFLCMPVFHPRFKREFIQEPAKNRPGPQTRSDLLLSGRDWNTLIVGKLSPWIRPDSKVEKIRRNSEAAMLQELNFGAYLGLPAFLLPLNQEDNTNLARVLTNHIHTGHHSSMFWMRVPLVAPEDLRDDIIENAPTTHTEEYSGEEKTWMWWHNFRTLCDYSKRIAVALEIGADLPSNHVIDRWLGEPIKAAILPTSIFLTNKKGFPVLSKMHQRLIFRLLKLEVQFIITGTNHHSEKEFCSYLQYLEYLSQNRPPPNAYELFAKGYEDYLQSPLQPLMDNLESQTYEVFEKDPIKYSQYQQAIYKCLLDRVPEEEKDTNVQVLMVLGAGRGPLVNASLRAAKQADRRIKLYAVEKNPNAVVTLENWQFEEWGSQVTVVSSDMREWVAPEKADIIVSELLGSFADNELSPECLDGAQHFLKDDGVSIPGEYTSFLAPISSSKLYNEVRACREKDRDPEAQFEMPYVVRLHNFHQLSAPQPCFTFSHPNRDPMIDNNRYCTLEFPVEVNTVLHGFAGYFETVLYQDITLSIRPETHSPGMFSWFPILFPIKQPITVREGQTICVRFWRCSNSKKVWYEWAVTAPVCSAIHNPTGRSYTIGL

GST-fused LSD1 = GST-fused LSD1 (human, UniProt O60341-2 1-876); test: as above; details: both partners purified

Row | Binder | binding result (Flag-PRMT5) | binding result (GST-fused LSD1)
1 | GST-fused Slug (natural protein, human, UniProt O43623 1-268, looked up, Slug (SNAI2), cDNA in the bacterial expression vector pGEX-KG; also called GST-Slug) MPRSFLVKKHFNASKKPNYSELDTHTVIISPYLYESYSMPVIPQPEILSSGAYSPITVWTTAAPFHAQLPNGLSPLSGYSSSLGRVSPPPPSDTSSKDHSGSESPISDEEERLQSKLSDPHAIEAEKFQCNLCNKTYSTFSGLAKHKQLHCDAQSRKSFSCKYCDKEYVSLGALKMHIRTHTLPCVCKICGKAFSRPWLLQGHIRTHTGEKPFSCPHCNRAFADRSNLRAHLQTHSDVKKYQCKNCSKTFSRMSLLHKHEESGCCVAH | binds | 
2 | Flag-Slug (natural protein, Slug (SNAI2), wild-type cDNA in lentiviral vector CD532A; 268 aa by the printed limits of the fragments; also called Flag-tagged Slug-FL; Flag-tagged Slug; source: HEK293T, expressed, in lysate; purified from HEK293T cells (for the GST pull-down)) MPRSFLVKKHFNASKKPNYSELDTHTVIISPYLYESYSMPVIPQPEILSSGAYSPITVWTTAAPFHAQLPNGLSPLSGYSSSLGRVSPPPPSDTSSKDHSGSESPISDEEERLQSKLSDPHAIEAEKFQCNLCNKTYSTFSGLAKHKQLHCDAQSRKSFSCKYCDKEYVSLGALKMHIRTHTLPCVCKICGKAFSRPWLLQGHIRTHTGEKPFSCPHCNRAFADRSNLRAHLQTHSDVKKYQCKNCSKTFSRMSLLHKHEESGCCVAH |  | binds

— publication PMC9164399, “The PRMT5-LSD1 axis confers Slug dual transcriptional activities and promotes breast cancer progression” (Journal of Experimental & Clinical Cancer Research : CR, 2022)
